Results: publication PMC7078309, “New Therapeutic Candidates for the Treatment of Malassezia pachydermatis -Associated Infections” (Scientific Reports, 2020)

Substrate: O=C(O)CCC(=O)C(=O)O
Assay: NAD/NADH quantification kit, Lineweaver-Burk
Assay type: biochemical, Malassezia pachydermatis
Settings: without inhibitor; reverse reaction; 2-OG 15-30 mM; NADH
Excerpt: NAD/NADH quantification kit, Lineweaver-Burk on MpSDH

B1: MpSDH (Malassezia pachydermatis) (protein)
chain: MTGTQALWLRCETKPAEHRSALTPTTAKKLINAGFDITVERDPNRIFDDEEFEKVGCHMAEYHSWPKAPKTTPIIGLKELDTPGPDLEHTHIQFAHCYKHQEGWVDVLARFKRGGGKLYDLEFLEDANGRRVAAFGWHAGFAGAALGLLALAEQVEGKVLGAQTKYPNEEALMEKTREAVRVIRKHRPDGRVTSLIIGALGRCGRGAIDCLEKSGLQSDEIVRWDIQETSAKSGPYQEIIDSDLFVNCIYLSKKIPPFVNKESLQAVGDKRRLGMIVDVSCDTTNPNNPIPVYSINTTFDKPTVAVDGFDKLEVISIDHLPTLLPREASEAFSNDLLPSLLQLPLVTGVAGEEALQHVNEEGKGAVWTRAEALFRKHLAEAEANGA
notes: synthetic gene, C-terminal 6xHN tag (pET6xHN-C), expressed in E. coli BL21, Ni-IMAC, 43 kDa band on SDS-PAGE
B1 showed a Km of 0.25 ± 7.1e-02 mM.
